Laboratory results from the Immune Epitope Database (IEDB).
pKd: −log10 of the molar value.

Assays:
HLA-A*01:01 [1] = assay: IEDB peptide-MHC binding, purified MHC/competitive/fluorescence; filed as Kd, often an IC50 or EC50 that approximates it; ≥ and ≤ were set here for values at or beyond the usual limits of such assays
HLA-A*03:01 [2] = assay: as above
HLA-B*58:01 [3] = assay: as above
HLA-B*18:01 [4] = assay: IEDB peptide-MHC binding, purified MHC/direct/fluorescence; filed as Kd, often an IC50 or EC50 that approximates it; ≥ and ≤ were set here for values at or beyond the usual limits of such assays; conditions: source organism: West Nile virus
HLA-B*27:05 = assay: as above
HLA-A*69:01 [5] = assay: as above; conditions: source organism: West Nile virus
HLA-A*01:01 [6] = assay: as above
HLA-B*44:02 = assay: as above; conditions: source organism: West Nile virus
HLA-A*31:01 = assay: as above; conditions: source organism: West Nile virus
HLA-A*03:01 [7] = assay: as above
HLA-B*39:01 [8] = assay: as above; conditions: source organism: West Nile virus
HLA-A*29:02 [9] = assay: as above; conditions: source organism: West Nile virus
HLA-B*48:01 = assay: as above; conditions: source organism: West Nile virus
HLA-A*11:01 = assay: as above
HLA-A*02:01 [10] = assay: as above
HLA-B*46:01 [11] = assay: as above
HLA-B*15:09 = assay: as above
HLA-B*58:01 [12] = assay: as above
HLA-B*15:01 = assay: as above
HLA-B*07:02 = assay: as above
HLA-B*40:01 = assay: as above
HLA-B*57:01 [13] = assay: as above; conditions: source organism: West Nile virus
HLA-A*02:19 [14] = assay: IEDB peptide-MHC binding, purified MHC/competitive/fluorescence; filed as Kd, often an IC50 or EC50 that approximates it; ≥ and ≤ were set here for values at or beyond the usual limits of such assays
HLA-B*18:01 [15] = assay: as above
HLA-A*26:01 [16] = assay: as above
HLA-A*29:02 [17] = assay: as above; conditions: source organism: Entamoeba histolytica HM-1:IMSS
HLA-B*46:01 [18] = assay: as above
HLA-B*27:03 = assay: as above
HLA-A*02:11 [19] = assay: as above
HLA-B*57:01 [20] = assay: as above
HLA-A*02:03 [21] = assay: as above
HLA-A*69:01 [22] = assay: as above
HLA-A*02:01 [23] = assay: as above
HLA-A*02:12 [24] = assay: as above; conditions: source organism: Vibrio parahaemolyticus AQ3810
HLA-B*39:01 [25] = assay: as above
HLA-A*26:01 [26] = assay: IEDB peptide-MHC binding, purified MHC/direct/fluorescence; filed as Kd, often an IC50 or EC50 that approximates it; ≥ and ≤ were set here for values at or beyond the usual limits of such assays; conditions: source organism: Burkholderia mallei ATCC 23344
HLA-B*08:01 = assay: as above; conditions: source organism: Burkholderia mallei ATCC 23344
HLA-B*08:02 = assay: as above; conditions: source organism: Burkholderia mallei ATCC 23344
HLA-A*02:19 [27] = assay: as above; conditions: source organism: Zaire ebolavirus
HLA-A*02:03 [28] = assay: as above; conditions: source organism: Zaire ebolavirus
HLA-A*02:12 [29] = assay: as above; conditions: source organism: Zaire ebolavirus
HLA-A*68:02 = assay: as above; conditions: source organism: Zaire ebolavirus
HLA-A*02:16 = assay: as above; conditions: source organism: Zaire ebolavirus
HLA-A*02:11 [30] = assay: as above; conditions: source organism: Zaire ebolavirus
[31] = source organism: Yersinia pestis Nepal516
[32] = source organism: West Nile virus
[33] = source organism: West Nile virus strain PTRoxo
[34] = source organism: Entamoeba histolytica HM-1:IMSS
[35] = source organism: Human immunodeficiency virus 1
[36] = source organism: Vibrio parahaemolyticus AQ3810
[37] = source organism: Salmonella enterica subsp. enterica serovar Typhi
[38] = source organism: Burkholderia mallei
[39] = source organism: Zaire ebolavirus

Which results are given for STIVWSSRY?
pKd (HLA-A*01:01 [1]; [31]): 5.85; pKd (HLA-A*03:01 [2]; [31]): 5.46; pKd (HLA-B*58:01 [3]; [31]): 6.77

With TEGEGRVIL as the sequence, how does the pKd (HLA-B*18:01 [4]) read?
The pKd was 5.99.

What about the pKd (HLA-B*27:05; [32]) of the same sequence?
Its pKd is ≤ 4.70.

What about the pKd (HLA-A*69:01 [5]) of the same sequence?
The pKd was ≤ 4.70.

What about the pKd (HLA-A*01:01 [6]; [32]) of the same sequence?
The pKd was ≤ 4.70.

And the pKd (HLA-B*44:02)?
Its pKd is ≤ 4.70.

What about the pKd (HLA-A*31:01) of the same sequence?
The pKd was ≤ 4.70.

And the pKd (HLA-A*03:01 [7]; [32])?
Its pKd is ≤ 4.70.

What about the pKd (HLA-B*39:01 [8]) of the same sequence?
Its pKd is ≤ 4.70.

What about the pKd (HLA-A*29:02 [9]) of the same sequence?
Its pKd is ≤ 4.70.

What about the pKd (HLA-B*48:01) of the same sequence?
Its pKd is ≤ 4.70.

What about the pKd (HLA-A*11:01; [32]) of the same sequence?
Its pKd is ≤ 4.70.

What about the pKd (HLA-A*02:01 [10]; [32]) of the same sequence?
Its pKd is ≤ 4.70.

And the pKd (HLA-B*46:01 [11]; [32])?
Its pKd is ≤ 4.70.

And the pKd (HLA-B*15:09; [33])?
The pKd was ≤ 4.70.

What about the pKd (HLA-B*58:01 [12]; [32]) of the same sequence?
The pKd was ≤ 4.70.

And the pKd (HLA-B*15:01; [32])?
Its pKd is ≤ 4.70.

What about the pKd (HLA-B*07:02; [32]) of the same sequence?
Its pKd is ≤ 4.70.

What about the pKd (HLA-B*40:01; [32]) of the same sequence?
Its pKd is 7.34.

And the pKd (HLA-B*57:01 [13])?
The pKd was ≤ 4.70.

CLSPVVAGL was tested. Which pKd (HLA-A*02:19 [14]; [34]) did it give?
The pKd was 9.10.

And the pKd (HLA-B*18:01 [15]; [34])?
Its pKd is ≤ 4.70.

And the pKd (HLA-A*26:01 [16]; [34])?
The pKd was ≤ 4.70.

What about the pKd (HLA-A*03:01 [2]; [34]) of the same sequence?
The pKd was ≤ 4.70.

And the pKd (HLA-A*29:02 [17])?
Its pKd is 6.66.

And the pKd (HLA-B*46:01 [18]; [34])?
Its pKd is ≤ 4.70.

And the pKd (HLA-B*27:03; [34])?
The pKd was ≤ 4.70.

And the pKd (HLA-A*02:11 [19]; [34])?
The pKd was ≥ 10.00.

And the pKd (HLA-B*57:01 [20]; [34])?
Its pKd is ≤ 4.70.

What does the source list for GLADQLIHI?
pKd (HLA-A*02:19 [14]; [35]): 8.02; pKd (HLA-A*02:03 [21]; [35]): 8.92; pKd (HLA-A*69:01 [22]; [35]): ≤ 4.70; pKd (HLA-A*02:01 [23]; [35]): 7.53; pKd (HLA-A*02:11 [19]; [35]): 9.70

What does the source list for SSRGYSAIW?
pKd (HLA-A*02:19 [14]; [36]): ≤ 4.70; pKd (HLA-B*18:01 [15]; [36]): ≤ 4.70; pKd (HLA-A*26:01 [16]; [36]): ≤ 4.70; pKd (HLA-A*02:03 [21]; [36]): ≤ 4.70; pKd (HLA-A*03:01 [2]; [36]): ≤ 4.70; pKd (HLA-A*02:12 [24]): ≤ 4.70; pKd (HLA-B*39:01 [25]; [36]): ≤ 4.70; pKd (HLA-B*46:01 [18]; [36]): ≤ 4.70; pKd (HLA-B*27:03; [36]): ≤ 4.70; pKd (HLA-B*57:01 [20]; [36]): 7.38

Which results are given for ITSKEVFTY?
pKd (HLA-A*01:01 [1]; [37]): 7.47; pKd (HLA-A*03:01 [2]; [37]): 5.64; pKd (HLA-B*58:01 [3]; [37]): 7.59

With EARGKEKLL as the sequence, how does the pKd (HLA-B*27:05; [38]) read?
Its pKd is ≤ 4.70.

And the pKd (HLA-A*26:01 [26])?
Its pKd is ≤ 4.70.

What about the pKd (HLA-A*01:01 [6]; [38]) of the same sequence?
The pKd was ≤ 4.70.

What about the pKd (HLA-A*03:01 [7]; [38]) of the same sequence?
The pKd was ≤ 4.70.

What about the pKd (HLA-B*08:01) of the same sequence?
Its pKd is 5.23.

What about the pKd (HLA-A*11:01; [38]) of the same sequence?
The pKd was ≤ 4.70.

What about the pKd (HLA-A*02:01 [10]; [38]) of the same sequence?
The pKd was ≤ 4.70.

And the pKd (HLA-B*46:01 [11]; [38])?
The pKd was ≤ 4.70.

What about the pKd (HLA-B*15:09; source organism: Burkholderia mallei ATCC 23344) of the same sequence?
Its pKd is ≤ 4.70.

What about the pKd (HLA-B*08:02) of the same sequence?
Its pKd is ≤ 4.70.

What about the pKd (HLA-B*58:01 [12]; [38]) of the same sequence?
The pKd was ≤ 4.70.

And the pKd (HLA-B*15:01; [38])?
The pKd was ≤ 4.70.

What about the pKd (HLA-B*07:02; [38]) of the same sequence?
Its pKd is ≤ 4.70.

What about the pKd (HLA-B*40:01; [38]) of the same sequence?
The pKd was ≤ 4.70.

GHGTVVLEL was tested. Which pKd (HLA-B*39:01 [25]; source organism: Murray Valley encephalitis virus) did it give?
Its pKd is 8.17.

What about the pKd (HLA-B*18:01 [4]) of the same sequence?
Its pKd is ≤ 4.70.

What about the pKd (HLA-B*27:05; [32]) of the same sequence?
The pKd was ≤ 4.70.

And the pKd (HLA-A*69:01 [5])?
The pKd was ≤ 4.70.

And the pKd (HLA-A*01:01 [6]; [32])?
Its pKd is ≤ 4.70.

And the pKd (HLA-B*44:02)?
The pKd was ≤ 4.70.

What about the pKd (HLA-A*31:01) of the same sequence?
Its pKd is ≤ 4.70.

And the pKd (HLA-A*03:01 [7]; [32])?
The pKd was ≤ 4.70.

What about the pKd (HLA-A*02:01 [10]; [32]) of the same sequence?
The pKd was ≤ 4.70.

What about the pKd (HLA-B*46:01 [11]; [32]) of the same sequence?
Its pKd is ≤ 4.70.

And the pKd (HLA-B*15:09; [33])?
The pKd was 5.34.

What about the pKd (HLA-B*58:01 [12]; [32]) of the same sequence?
Its pKd is ≤ 4.70.

And the pKd (HLA-B*15:01; [32])?
The pKd was ≤ 4.70.

What about the pKd (HLA-B*07:02; [32]) of the same sequence?
Its pKd is ≤ 4.70.

And the pKd (HLA-B*40:01; [32])?
The pKd was ≤ 4.70.

What about the pKd (HLA-B*57:01 [13]) of the same sequence?
Its pKd is ≤ 4.70.

Which results are given for KTNDFAPAW?
pKd (HLA-B*18:01 [15]; [39]): ≤ 4.70; pKd (HLA-A*26:01 [16]; [39]): ≤ 4.70; pKd (HLA-A*69:01 [22]; [39]): ≤ 4.70; pKd (HLA-B*39:01 [25]; [39]): ≤ 4.70; pKd (HLA-A*02:01 [23]; [39]): ≤ 4.70; pKd (HLA-B*46:01 [18]; [39]): ≤ 4.70; pKd (HLA-B*58:01 [3]; [39]): 8.89; pKd (HLA-B*27:03; [39]): ≤ 4.70; pKd (HLA-A*02:19 [27]): ≤ 4.70; pKd (HLA-A*02:03 [28]): ≤ 4.70; pKd (HLA-A*02:12 [29]): ≤ 4.70; pKd (HLA-A*68:02): ≤ 4.70; pKd (HLA-A*02:16): ≤ 4.70; pKd (HLA-B*15:01; source organism: Ebola virus - Gabon (1994-1997)): ≤ 5.30; pKd (HLA-A*02:11 [30]): ≤ 4.70
